Where two headings read alike, the source gives them in different places.

Data set [1] has as its target T1, streptavidin (UniProt P22629 25-183). The experiment in a line: EMSA. For orientation: Mobility shift assays separate free from complexed probe on a gel.
The target in data set [2] is T1, streptavidin. The experiment in a line: EMSA. The source holds these as a separate data set.

T1 sequence (P22629 25-183): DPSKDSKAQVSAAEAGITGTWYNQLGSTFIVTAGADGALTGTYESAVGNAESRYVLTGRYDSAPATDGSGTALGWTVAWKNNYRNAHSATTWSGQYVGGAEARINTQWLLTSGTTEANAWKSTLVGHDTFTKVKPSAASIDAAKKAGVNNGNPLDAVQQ

B1: BSS-siRNA (anti-lamin A/C) (dsRNA)
RNA 1: GGAACUGGACUUCCAGAAGAACAUCUA
RNA 2: UAGAUGUUCUUCUGGAAGUCCAGUUCC
modifications: 5'-biotin via C6 S-S disulfide linker on sense strand
As for B1, the binding result in data set [1] is “binds”.

B2: B-siRNA (anti-lamin A/C) (dsRNA)
RNA 1: GGAACUGGACUUCCAGAAGAACAUCUA
RNA 2: UAGAUGUUCUUCUGGAAGUCCAGUUCC
modifications: 5'-biotin on sense strand
Regarding B2, the binding result in data set [2] is listed as “binds”.

Values taken from PMC1474074.
